Among the data in patent publication US6747136 are IC50 values, retold here.

For the experiment, the target named is HCV E2 antigen (HCV genotype 1b) (hepatitis C virus genotype 1b).

B1: Fab molecule clone 1:11 (Fab, V domains shown)
VH: VQLLEQSGAEVKKPGSSVKVSCKASGGTFSGHVISWVRQAPGQGLEWMGGSISFFGTSNSAQKFQGRVSITADESASTAYMELSSLRSEDTAIYYCAKDPPRFCSGGNCYPGFFQQWGQGTLVTVSS
VL: AELTQSPGTLSLSPGERATLSCGASQSVRSNYLAWYQQKPGQAPRLLIYGVSSRATGIPDRFSGSGSGTDFTLTISRLEPEDFAVYYCQQYGSSPRTFGQGTKLEIK
As usually defined, the IC50 is the concentration at which inhibition is half-maximal. Read a high IC50 as weaker potency in that assay. The molecule B1 came in with an IC50 of 0.15 µg/mL.
